Data as given in patent EP1257648B2 (AMGEN INC., dated 2016).
Values joined by “and” are separate entries in the source; they are usually repeats but may differ in a detail not shown here. Identical values can stand only once.

Target: T1, human OPGbp[143-317] (human, UniProt O14788 143-317)
T1 sequence (looked up): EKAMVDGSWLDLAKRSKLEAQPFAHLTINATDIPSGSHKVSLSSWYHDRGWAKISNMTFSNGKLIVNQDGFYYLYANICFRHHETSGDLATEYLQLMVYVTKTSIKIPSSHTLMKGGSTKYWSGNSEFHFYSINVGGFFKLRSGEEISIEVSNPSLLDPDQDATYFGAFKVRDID
Test: cell-based or functional assay

B1: human OPG [22-194]-Fc (Fc fusion, UniProt O00300 22-194, looked up, not shown: a dimerising Fc or GST)
chain: ETFPPKYLHYDEETSHQLLCDKCPPGTYLKQHCTAKWKTVCAPCPDHYYTDSWHTSDECLYCSPVCKELQYVKQECNRTHNRVCECKEGRYLEIEFCLKHRSCPPGFGVVQAGTPERNTVCKRCPDGFFSNETSSKAPCRKHTNCSVFGLLLTQKGNATHDNICSGNSESTQK
- IC50, RAW cell assay (TRAP), positive control: 0.033 µg/mL

B2: Fab "AT" (Fab, V domains shown)
VH: QVQLVQSGAEVRKPGASVKVSCKASGYDFSNYAIHWVRQAPGQRLEWMGWINAGNGNTKFSQKFQGRITVTRDTAASTAYMELRSLRSEDTAVYYCARDSSNMVRGIIIAYYFDYWGQGTLVTVSS
VL: EIVMTQSPSSLSASVGDRVTITCRASQSISRYLNWYQLKPGKAPRLLIYGASSLQSGVPSRFSGSGSGAEFTLTISSLQPEDIATYYCQHTRAFGQGTKVEIKR
- IC50, RAW cell assay (TRAP): 15 µg/ml and 300 nM
- IC50, murine bone marrow osteoclast formation assay (TRAP, pNPP): 57.8 nM

B3: "AT" antibody (antibody, V domains shown)
VH: B2 VH
VL: B2 VL
- IC50, RAW cell assay (TRAP): 60.3 nM and 21.4 nM and 3 ug/ml and 9 ug/ml and 3.2 ug/ml and 20.1 nM
- IC50, bone marrow assay (TRAP): 2.35 µg/ml and 14.4 nM
- IC50, murine bone marrow assay (TRAP): 2.15 ug/ml and 14.4 nM and 1.85 ug/ml and 12.5 nM
